What was measured:
Conditions in all cases: reference: wild type; sites S248
V5-14-3-3β = V5-14-3-3β (UniProt P31946); test: co-IP with αV5, blot αFlag
14-3-3β [1] = biological target: 14-3-3β (UniProt Q9CQV8); test: co-IP with αFlag, blot α14-3-3β
14-3-3β [2] = biological target: 14-3-3β (UniProt P31946); test: Flag-Rubicon complex purification, immunoblot

Measured: binding against the reference

Rubicon (from UniProt Q92622) S248A
lost: all assays above
